The source of these data is patent US20190202925A1.

For assay [1], the target named is cynomolgus TNFR2 on cells (cynomolgus). Briefly: flow cytometry on cynomolgus PBMC, antibody at 10 ug/mL, anti-human Fc-PE secondary; negative control. Background: A flow cytometer gives signals particle by particle.
Assay [2] addresses human TNFR2 on cells (human) (UniProt P20333). Briefly: flow cytometry on human PBMC, antibody at 10 ug/mL, anti-human Fc-PE secondary; negative control.

Chain of human TNFR2 on cells (human) (P20333 23-461): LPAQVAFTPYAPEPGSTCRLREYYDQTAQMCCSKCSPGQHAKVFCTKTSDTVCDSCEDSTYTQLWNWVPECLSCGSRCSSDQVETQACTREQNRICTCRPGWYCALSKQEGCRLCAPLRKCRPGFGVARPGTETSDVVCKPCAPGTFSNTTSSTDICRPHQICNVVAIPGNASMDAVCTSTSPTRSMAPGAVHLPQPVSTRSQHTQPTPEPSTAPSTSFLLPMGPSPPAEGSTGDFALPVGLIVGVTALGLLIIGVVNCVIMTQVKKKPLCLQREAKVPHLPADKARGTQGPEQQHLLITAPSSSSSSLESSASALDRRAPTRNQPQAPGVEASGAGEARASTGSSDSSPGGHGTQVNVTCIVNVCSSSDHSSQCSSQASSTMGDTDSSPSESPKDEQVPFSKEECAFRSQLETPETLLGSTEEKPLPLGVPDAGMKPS

“Isotype Control (Negative Control) (antibody)”: in assay [1], the % CD4^+ ab^+ Donor 1 was found to be 0.2%, the % CD4^+ ab^+ Donor 2 turned out to be 0.5%, the % CD8^+ ab^+ Donor 1 stood at 0.2% and the % CD8^+ ab^+ Donor 2 was 0.6%. In assay [2], the % CD4^+ ab^+ Donor 1 amounted to 0.7%, the % CD4^+ ab^+ Donor 2 is 0.7%, the % CD8^+ ab^+ Donor 1 stood at 0.5% and the % CD8^+ ab^+ Donor 2 is 0.7%.
